Test results from US7354735B2, “Nucleic acid encoding fluorescent protein constructs and methods for detecting apoptosis” (Hong Kong University of Science and Technology, priority 2001, dated 2008).

Columns and labels:
caspase-3 [1] = target: T1, caspase-3 (Homo sapiens, UniProt P42574); assay: Western blot analysis of caspase-3 cleavage of purified FRET probes; assay type: biochemical; conditions: for cleavage by caspase-3 (Western blot): purified protein incubated with caspase-3, 37 degree C, 1-2 hrs, anti-GFP antibody
T1 sequence (P42574 29-175 limits assumed): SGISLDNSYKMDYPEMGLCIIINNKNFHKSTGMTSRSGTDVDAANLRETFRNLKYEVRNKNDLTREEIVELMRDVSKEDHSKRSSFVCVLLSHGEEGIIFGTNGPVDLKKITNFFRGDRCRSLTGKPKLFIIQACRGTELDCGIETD
T1 sequence (P42574 176-277 limits assumed): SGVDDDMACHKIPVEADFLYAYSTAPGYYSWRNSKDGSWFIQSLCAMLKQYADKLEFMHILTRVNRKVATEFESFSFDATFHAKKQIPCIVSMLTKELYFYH
Method: Purified FRET probes were incubated with caspase-3 in the reaction buffer at 37. degree. C. for 1-2 hrs. The reaction mixtures were separated on a SDS-PAGE and transferred onto a nitrocellulose membrane. The Protein blot was then probed with anti-GFP antibody (CLONTECH™). Acetyl-Asp-Glu-Val-Asp-aldehyde called CHO (AC-DEVD-CHO) is a chemical derivative of SEQ ID NO: 11 and a caspase-3 specific inhibitor.
To determine whether these FRET probes are sensitive to caspase-3 cleavage; the purified proteins were incubated with caspase-3 and then subjected to Western blot analysis. Antibodies were purchased from CLONTECH™.

caspase-3 [2] = target: T1, caspase-3; assay: Spectrofluorometer measurement of FRET emission spectra before and after caspase-3 treatment; assay type: biochemical; conditions: excitation 433 nm; for YFP (526 nm)/CFP (480 nm) emission ratio after caspase treatment: after incubating with caspase-3; for YFP (526 nm)/CFP (480 nm) emission ratio before caspase treatment: before caspase-3
Method: The excitation wavelength used to excite CFP in the probe was 433 nm. −cpp32: no caspase-3 in the reaction. +cpp32: caspase-3 was added into the reaction.
The fluorescent energy transfer from CYP to YFP in the FRET probes was measured using a spectrofluorometer. When CFP was excited in each probe at the excitation wavelength of 433 nm, very little emission light was detected from the FRET probes at the known emission wavelength for CFP (480 nm). Instead, a significant amount of emitted fluorescent light was detected at the emission wavelength of YFP which peaks at 526 nm (FIG. 4). […] It was then determined whether the FRET effect was sensitive to the caspase cleavage. The FRET probes were treated with caspase-3 and analyzed using a spectrofluorometer. […] As a control, no change for the emission spectrum was observed from the CFP-YFP fusion protein which lacks the substrate sequence (FIG. 4A). Based on spectra similar to FIG. 4, it was determined the YFP (526 nm)/CFP (480 nm) emission ratio for all three FRET probes before and after caspase treatment. This YFP/CFP ratio was used to quantify the FRET effect.

caspase-3 [3] = target: T1, caspase-3; assay: Dosage-dependent caspase-3 cleavage assay; assay type: biochemical; conditions: 1.28 μg sensor protein, caspase-3 0.3125 ng to 1.28 μg, 1 hour; for sensitivity to caspase-3: normalized YFP/CFP ratio
Method: Same amount of purified sensor A and sensor B protein was incubated with different amount of caspase-3 ranging from 0.3125 ng to 1.28 μg for 1 hr. The emission spectra of both YFP and CFP were measured for each sample at the end of reaction using a spectrofluorometer. The emission ratio (YFP/CFP) of each sample was normalized to the value of the ratio from a mock control with no caspase-3.
To compare the sensitivity of sensor A and sensor B on caspase-3 activity, a dosage-dependent caspase-3 cleavage assay was performed. In this experiment, 1.28 μg amount of the purified sensor A or sensor B protein was incubated with different amount of caspase-3 ranging from 0.3125 ng to 1.28 μg for 1 hour. The emission spectra of both YFP and CFP were measured for each sample at the end of the reaction using a spectrofluorometer. The emission ratio (YFP/CFP) of each caspase reaction was normalized with that of the mock control having no caspase-3 in the reaction.

HeLa cells = assay: Imaging of FRET probe in living HeLa cells during UV-induced apoptosis; assay type: cell-based
Method: HeLa cells expressing either sensor A or CFP-YFP fusion protein were induced to apoptosis by UV irradiation for 5 min. When the probe was excited at 440 nm, the fluorescent intensity of CFP (at 480±15 nm) and that of YFP (at 535±12.5 nm) from same cell before (A, C) and after (B, D) UV treatment was recorded using a cooled CCD imaging system. The representative ratio images of YFP/CFP are shown here. A significant FRET reduction is seen only in panel B from both cells expressing sensor A, but not in panel D with cells expressing the control fusion protein.
FIG. 7 is a statistic analysis of FRET changes during apoptosis. Images were recorded as described in FIG. 6. The fluorescent intensities of YFP and CFP were then determined from each image. The average values of YFP/CFP from 13 cells expressing sensor A and 9 cells expressing CFP-YFP fusion protein before and after UV-irradiation are plotted here. Nearly 4-fold reduction in the apoptotic cells expressing was found using the FRET probe but not in the control cells expressing the CFP-YFP fusion gene.
To test whether this FRET probe can be used to detect caspase activity in living cells, sensor A was expressed in HeLa cells and measured the FRET effect of the probe in single cells using a cooled CCD imaging system. The fluorescent images of the cell obtained from the emission wavelengths of CFP and YFP were recorded before and after UV treatment. A computer software (Metamorph, Universal Imaging) was used to generate a ratio image of YFP/CFP for each cell under different treatments. […] At 3 hours after the UV treatment, these cells had entered apoptosis. […] The average YFP/CFP emission ratio changes was calculated for 13 apoptotic cells expressing sensor A, and found a nearly 4-fold reduction after UV treatment (FIG. 7).
Recently, sensor A was used to study the dynamics of caspase-3 activation during UV-induced apoptosis in living HeLa cells.

| Substance | cleavage by caspase-3 (Western blot) (caspase-3 [1]) | change of emission spectrum on caspase-3 treatment (caspase-3 [2]) | YFP (526 nm)/CFP (480 nm) emission ratio after caspase treatment (caspase-3 [2]) | YFP (526 nm)/CFP (480 nm) emission ratio before caspase treatment (caspase-3 [2]) | sensitivity to caspase-3 (caspase-3 [3]) | reduction of average YFP/CFP emission ratio after UV treatment (HeLa cells; HeLa cells expressing the probe, before and after UV irradiation, 13 cells sensor A, 9 control cells) [fold] | intensity of YFP/CFP ratio image after UV treatment (HeLa cells; HeLa cells, 3 hours after UV treatment) | detection of caspase-3 activation during UV-induced apoptosis (HeLa cells; living HeLa cells) | relative sensitivity to caspase-3 (sensor A versus sensor B) (caspase-3 [3]) | cleavage of FRET probe (sensor A) by caspase-3 in the presence of inhibitor (caspase-3 [1]; caspase-3 plus inhibitor, Western blot) |
| --- | --- | --- | --- | --- | --- | --- | --- | --- | --- | --- |
| sensor B: CFP-YFP FRET fusion protein with 22 amino acid linker SGLRSGGSGGDEVDGGSGGSNS (SEQ ID NO: 10) containing DEVD (left off: small tags and cut ends; large carriers) | caspase-3 can cleave almost all | completely changed | 0.59 | 2.76 | highly sensitive |  |  |  |  |  |
| sensor A: CFP-YFP FRET fusion protein with 16 amino acid linker SGLRSGGDEVDGGSNS (SEQ ID NO: 7) containing the caspase-3 recognition motif (left off: small tags and cut ends; large carriers) | caspase-3 can cleave almost all | completely changed | 0.59 | 3.02 | highly sensitive | ~4 | decease dramatically | clearly detected prior to any visible cell morphological changes | slightly more sensitive than sensor B |  |
| acetyl-Asp-Glu-Val-Asp-aldehyde [AC-DEVD-CHO, reference compound] |  |  |  |  |  |  |  |  |  | no FRET probe (sensor A) was cleaved |
